Measurements taken from patent US6468985B1, “Retinoblastoma protein-interacting zinc finger proteins” (The Burnham Institute, priority 1994, dated 2002).

How the values were obtained:
B3 mutant of Rb = target: T1, B3 mutant of Rb (Homo sapiens, UniProt P06400); experiment: binding of GST-RIZ (245-573) to 35S-labeled Rb mutant, immunoprecipitation with anti-RIZ antiserum; conditions: deletion C-terminal to the Rb binding pocket
T1 construct: made in house; host or cells: in vitro transcription/translation
T1 sequence (P06400 1-803): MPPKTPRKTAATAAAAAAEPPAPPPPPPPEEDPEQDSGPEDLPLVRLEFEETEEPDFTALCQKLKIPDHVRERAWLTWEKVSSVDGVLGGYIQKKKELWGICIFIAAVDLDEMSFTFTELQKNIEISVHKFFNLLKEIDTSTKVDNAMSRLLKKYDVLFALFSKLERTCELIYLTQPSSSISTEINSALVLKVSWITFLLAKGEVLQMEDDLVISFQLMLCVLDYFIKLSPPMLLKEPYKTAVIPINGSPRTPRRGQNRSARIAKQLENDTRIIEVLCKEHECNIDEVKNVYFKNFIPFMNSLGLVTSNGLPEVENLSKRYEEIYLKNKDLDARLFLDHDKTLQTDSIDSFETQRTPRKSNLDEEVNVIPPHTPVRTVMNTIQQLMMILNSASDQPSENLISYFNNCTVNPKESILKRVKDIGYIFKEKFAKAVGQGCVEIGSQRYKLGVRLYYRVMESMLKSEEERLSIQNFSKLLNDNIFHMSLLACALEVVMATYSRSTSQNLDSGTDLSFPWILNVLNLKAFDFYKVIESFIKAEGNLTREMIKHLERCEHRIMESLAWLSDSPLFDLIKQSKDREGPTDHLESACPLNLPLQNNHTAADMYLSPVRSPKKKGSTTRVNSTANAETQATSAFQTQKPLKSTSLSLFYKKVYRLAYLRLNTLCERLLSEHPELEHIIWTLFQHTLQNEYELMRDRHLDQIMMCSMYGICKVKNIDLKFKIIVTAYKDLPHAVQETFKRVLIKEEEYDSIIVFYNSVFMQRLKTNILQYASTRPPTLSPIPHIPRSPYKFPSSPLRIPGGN
Method: The 56 kD Rb fragment that binds to RIZ is a C-terminal fragment containing the Rb pocket binding region and a C-terminal extension. To further define the portion of 56 kD Rb that binds to RIZ, several Rb mutant polypeptides were tested for binding to RIZ. Mutant and full length Rb were cloned and in vitro transcribed/translated as described previously (Huang et al., supra, 1990). H209 is a point mutation resulting in a single amino acid change in Rb that was identified in the small cell lung cancer H209 cell line (American Type Culture Collection (ATCC) #HTB 172). The various Rb forms were tested for binding to glutathionine S-transferase (GST) fused to a fragment of RIZ from amino acid position 245-573 (GST-RIZ (245-573)). This RIZ fragment contains all of the E1A motifs related to binding Rb and was constructed by cloning a Stu I-Hpa I RIZ fragment (nucleotide 795-3068) into vector pBSK+ to make pBSK+SH. An Eco RI fragment was removed from pBSK+SH and ligated into pGEX-KG to produce vector pKG7.1S containing GST-RIZ (245-573).
The binding between purified GST-RIZ (245-573) and the above radiolabeled Rb wild-type and deletion mutants was determined by immunoprecipitation with an anti-RIZ antiserum followed by SDS-PAGE and autoradiography. […]

rat ovary genomic DNA = experiment: filter-based DNA-binding assay
Text: To evaluate whether the zinc finger domains of RIZ can bind to DNA, the RIZ finger motifs 1 to 3 from amino acid position 245-573 or finger 4 to 6 from amino acid position 1114-1260 were expressed as GST fusion proteins, GSTZ13 and GSTZ46, respectively. The GST-RIZ fragments were purified by glutathionine agarose chromatography (Guan and Dixon, Anal. Biochem. 192:262-267 (1991), which is incorporated herein by reference) and evaluated for binding in a filter-based DNA-binding assay (Sukegawa and Blobel, Cell 72:29-38 (1993), which is incorporated herein by reference). To obtain GSTZ46, a fragment encoding RIZ (1114-1260) was made by PCR using primers 5′-GTGGTCCAAG AAACATTC-3′ (SEQ ID NO: 17) and 5′-TCGTGTAAAG CTCTTCAG-3′ (SEQ ID NO: 18) and pCMVRIZ as template. The PCR fragment was cloned into pBKS+, then into pGEX-KG (Guan and Dixon, supra, 1991).
The filter-based DNA binding assay was performed by electrophoresing 0.5 μg of purified GST or GST-RIZ fusion proteins by SDS-PAGE and transferring the proteins to nitrocellulose. The proteins were renatured by incubating the nitrocellulose for 3 hr in binding buffer (50 mM Tris-HCl, pH 8, 100 mM KCl, 0.1% Triton X-100™, 10% glycerol, and 0.1 mM ZnCl2). ^32P-labeled, randomly sheared rat ovary genomic DNA was added to the buffer and the nitrocellulose was incubated for an additional 3 hr. […]

binding to B3 mutant of Rb (B3 mutant of Rb): showed binding | binding to 32P-labeled rat DNA (rat ovary genomic DNA; 0.5 μg protein, binding buffer with 0.1 mM ZnCl2): bound | zinc dependence of DNA binding (rat ovary genomic DNA; with ZnCl2 versus 10 mM EDTA, 2 mM DTT and no ZnCl2): Zn^++ ion dependent manner
B1: GST-RIZ (245-573): glutathionine S-transferase fused to RIZ fragment a.a. 245-573 containing zinc fingers 1-3 (protein)
chain: CEPQPEVDGKQEVTDCEVNDVEEEELEEEEELEEEEEEELGEDGVEEADMPNESSAKEPEIRCEEKPEDLLEEPQSMSNEAREDSPDVTPPPHTPRAREEANGDVLETFMFPCQHCERKFATKQGLERHMHIHISTINHAFKCKYCGKRFGTQINRRRHERRHETGLKRRPSMTLQSSEDPDDGKGENVTSKDESSPPQLGQDCLILNSEKTSQEVLNSSFVEENGEVKELHPCKYCKKVFGTHTNMRRHQRRVHERHLIPKGVRRKGGLLEEPQPPAEQAPPSQNVYVPSTEPEEEGETDDVYIMDISSNISENLNYYIDGKIQTNSS
modifications: left off: a dimerising Fc or GST
